Conditions: Rhodopseudomonas palustris (strain ATCC BAA-98 / CGA009); pH 6.5; 25 °C; GdnHCl; CD; MES 20 mM; NaCl 40 mM; whole UniProt chain shown

B1: Cytochrome c' wild type, P00149 (protein)
chain: MKLRIATIAGLVVLGSGFAVAQTDVIAQRKAILKQMGEATKPIAAMLKGEAKFDQAVVQKSLAAIADDSKKLPALFPADSKTGGDTAALPKIWEDKAKFDDLFAKLAAAATAAQGTIKDEASLKANIGGVLGNCKSCHDDFRAKKS
denaturant m value: 5.12 kcal/mol/M
denaturant midpoint (higher = more stable): 1.71 M
unfolding free energy: 8.77 kcal/mol
